Assay: soluble on expression in E. coli; label from the status in PepcDB or PDB records

| Sequence | soluble on expression in E. coli |
| --- | --- |
| MLDLRFQRLHGKTTLTTRHHVGLLTVQRPFYPEEETCHLCLLHPPGGIVGGDELIINAIIDSDCHTLITMPGASKFYRSSGAQAHLQQNLTLCNNATLEWLPQDSIFFPGAHATLHTVFHLSSSSTLLAWDLLCLGRPVIGETFSHGTLANRLEIWVDGSPLLIERLHVANGELTCVARKPWVGTMLFYLGNETQLEDIREKLTPLENYAGATLTDGLLTVRFLSDDNLRCQ | not soluble |
| MLEAKNLTCIRDDRCLFQQLSFCIAPGEIVQIEGPNGAGKTSLLRILAGLAEADEGQVNWRDKNIRRDRAKYHQDLLFLGHQPGIKSVLTPFENLLFYQSVFQKVDSAAIWQALAQVGLVGYEDLPVSQLSAGQQRRVALARLWLSPAPLWILDEPLTAIDKQGVSTLLALFVQHAAKGGMVLLTTHQDLGAVSHNVRKICLANTQEKSCLSACCAVN | not soluble |
| MLEELGKVVEFKGKGVELHLDGQGEPFLYPYMEYFLEKASRMKGVEVVSIQSNGTLLTEEKISAIEDYVTRINLSLSSLDEKTAKTLHGAYSVKKVKEVAEMIASSKMDLLIAPVWVPGYNDREIPKIIEFALEIGAGKKYPPLGIQKYIPYRYGRKAGKSMPFKEFYRRLEEYEKEYGVKLVLGPEDFGMEKRPK | not soluble |
| MLEKYGRCRKRRLLKEVVLILLVAAVQPVLSSSKSTPEAQLTDVELTCPDDWIRHGTKCYLPFNIHQSWPFAMTTCQRYGSTLAKIQTGSENQFIASLLSKPGKPTEGKEYWIGLTVEVLDDDELYLWSDGTPTSRYVGFWRQDQPNFLNGSCALGKVERKDLEWRLDTCNLLRRFVCERPACVQGSYFCSSGSCISESKKCNGHNDCDDGSDEQNCPSAFQPNCRTYEKGESGQLSSTNYPNSYDPNLNCRHVLEGPINSRIELTIEHFETEPDFDILTVLDGGPAENSTTVIKRLSGSMETVQTITSATNMMIVQFRTDAQSNARGWQLKWRAVPFTCGGHFTAQAYIQSFVSPGYPKTFANGAECVWTVESTPGQVVSLIMKSGKTWG | not soluble |
| MLEVDVVRISVIVPIYNVKLYIERCVRSLMEQTLENIEFIFVNDCTPDDSMDILHYVLEEYPKRREQIKIIEHETNRGISAVRNTGLKNATGQYIIYCDSDDWVEKNMYEKLLVKALETSADIVGCDFFDDYVAHSTIRKQLFPQQSEKCVKKMLRGELHCGTWNKLVIKSLYERTKIDFPEGINMWEDVSTIIPLCFHATKIDYIPEALYHYIHHNVSSYTYSVTEKSLENLVASIQLLESFFLTNQCFKTFGEDLCFMKLTVKLNLLLGSKGELQKKRNMLYSSANRYIFSYSGMSWYWKIALWVASKKMLFCFNVMSCIERIIKKWKLEHHHHHH | not soluble |
| MLFDSLPRPSERIAPGVAHLPGWLGVDKQAELVREIREIARTYADTPMAMLRPTLKSGGQMSVYQLHLGRYWHYPSYRYIDKIAGTTVPPVPDSLAALAPEALRAAAEVAEELAPWVETFVPEMVLVNYYPPGSRMGMHVDEFEESRAPVISVSIGDEALFRMGHTESRTQPWDDVTLCSGDLVVFGGPKRFAYHGVVRVNDATLPDGCGLEQGRINITIRQVSAAPNVQGR | not soluble |
| MLFNFREKLNSRKFLVTAEVSPPKGTRFSASLEDASQLKGIADALNVTDNQCSIMHMSSLAFSKLLLDEGHEPIMQLTCRDRNRIGLQSDLLGAYALGIRNICLMTGDYPTCGDHPGSKPVYDVDSVQLIELVRKLDTGVDFAGNKLDGGTSFCAGAVSGIDPEKTMQLIKLQKKVKCGADFIQTQAVYDIGMFEEFMDAVNYLEVPVIAGLIPLKSLGMAEFMNKNISGIHVPEEIMLRMKDASSPMEEGLLIASETIKELTKLSRGIHVMPIGSHRNTARLLSLAGISQ | not soluble |
| MLFTISENVKEAAQYFVEYKIQSVSDLKEFARVMKEYERKGDSFIHELVVQLNKTFITPIEREDIHQLAMKMDDVLDGFEQCSARFEMFSFTEIDEHMAKFFDYIYQSTIEIVHALELLANKKLLDMRQHAIKIKDYETKCDEILRASIKNLFVTQKDPIKIIQYKELYEMLEEIADSCEDVANTLETIIMRNA | not soluble |
| MLGAMSLRLSEFRETNLLDKILFGVLSPHEIRQLAKVTVVRGDLYEADGTPVSGGLRDPHFGAIEPGERCPVCGNSREECPGHFGKIELARPVLIPHYTDYVYKILQATCRVCGRITLPEEKIKYYRLIFRRLRGKWPQLAKTFATMVVKEAAQATQCPHCGKPQYKVVYIRPFHFYEKKPEGDVKLTPSEIRERLEKTGSEIEILGVHPERSRPEWMVATVLIVPPLAVRPSITLETGLRSEDDLTHALAEIVRQNEKLRNVIVTNAPETLIEENWMVLQEMVAAYIDNELPGARRLTHRRKRYLKTLAQRLKGKDGRIRGNLSGKRVNYSARTVISPDPYISINEVGVPEEIAKTLTIAMRVTPYNLEEARRYVLNGPDKWPGALFVYKASERKKYDLRFFKDYEKLAESLEPGDVVERHLINGDIVLFNRQPSLHRMSIMGHIVRVMPGKTFRLNLLVCPPYNADFDGDEMNLHVPRLEEAQAEAREIMLVEKHILTPRYGGPIIGGRQDYVSGAYLLTVKTRLFTKEEVERLLSVAGYKGDLPEPAILKPEPLWTGKQLASIFLPEDLSFKGKSKTNAGDLACSDELCLHDSYIVITNGKLLEGVLDKKAIGAEEPNNLLHIIALEYGNSKARQLLDSFYRMFIRMLELRGLTISLHDIDLPDRAKQEIEELIREYKGRVYSIIEEYRKGTLEPIPGRSLEESLEIKIMEVLDELRKRVQEVASNNLDPFNDVFVMARTGARGSDVNISQMAAMLGQQAVRGRRIRRGLRNRVLAHFKENDIEPEAWGFVRSSFRKGLRPTEVFFHAAAGREGLVDTAVKTSQSGYMQRRLINALQDIVVTYDGTVRDLYGNLIQLKYGEDGVDPMKTYHGKPVDVKRIIQRVKASKAETV | soluble |
| MLIAITGTPGVGKTTVAKLLAKKLNYEYVSLKDFALEKGCGRRVNDEVEVEIDELAYFIERELKGKNAVLDGHLSHLMPVDLVVVLRAHPKLIGERLRERGYDREKIGENVEAELVDAVLIEAIEEHENVIEVDTTNKSPEDVVEEIVSLINSGIKKRVGIVDWSEVYDEIIPYLRLGGELEHHHHHH | soluble |
| MLINVNFNELLLELDSLSVYRNLLNDSVIKKLYELGDLIYKKEPGTDEFIKKYNEFFFELTSGSIQSLKEHIIELILFDENPYSRQSEKLPFENIDKVLIDAASKDLDRLHVISALTSRKFKDYALENICKSESEKRFIDSLPAWEFDGRSNQGKRKLSQNCQKMIDVLVSSNKWGECVKNLSDFYFTNGSGIFARYHAFVWEPSEKPSLRGVEFPDPIRLSDFIGYEQQRLEVIENTEKFVRGLPANNVLLYGDRGTGKSSTVKAIANEYREQGLRIIEIPRKYLVDFPAVLKLIKGRSCKFIIFIDDLAFEDSEESYTVLKSVLEGGVENRPDNVLIYATSNRRHLIKEKFSDRAGFKSDDPDDEIRAQDTMQEKLSLSERFGITVVFSSPDKKQFLQIVEGLVAKRGINIDKDTLQREAMKWELMYNGRSARTARQFVDWLEGSMKLKK | soluble |
| MLIPSKLSRPVRLEHTVVRERLLAKLSGANNYRLVLITSPAGYGKTTLISQWAAGKNDLGWFSLDEGDNQQERFASYLIAAIQQATGNHCAASEAMVQKRQYASLSSLFAQLFIELADWQRPLYLVIDDYHLINNPVIHDAMRFFLRHQPENMTLVVLSRNLPQLGIANLRVRDQLLEIGSQQLAFTHQEAKQFFDCRLTSPIEADDSSRLCDDVAGWATALQLIALSARQNNSSAQHSARRFAGINASHLSDYLVDEVLDNVDARTRNFLLKSSLLRSMNDALIVRVTGEENGQMQLEEIERQGLFLQRMDDSGEWFRYHPLFGSFLRQRCQWELAVELPEIHRAAAESWMAQGFPSEAIHHALAAGDAKMLRDILLNHAWGMFNHSELGLLEQSLAALPWSNLLENPRLILLQAWLMQSQHRYSEVNTLLARAEQEMSVEMDTAMHGDFNALRAQVAINDGDQDEAERLSMVALEELPLANYYSRIVATSVHGEVLHCKGKLTKSLAVMQQTEQMARRHDVWHYALWSIIQQSEILFAQGFLQAAW | not soluble |
| MLIRKITRKNPSPDVLEEAISVMEGGGIVIYPTDTIYGLGVNALDEDAVRRLFRVKGRSPHKPVSICVSCVDEIPRFSRPSGDAMELMERILPGPYTVVLERNELIPDVITGGSSRVGIRVPDDEICRRIAARFPVTATSANISGKPPSPRLEEIVRDLDAVDLVLDAGDCLDMEPSTVIDLTVNPPRVLRRGKGPLDPVLLRGAGDV | soluble |
| MLIRQAGPADNAQLLDFQQRHAMRGSMPLRFDRSPDYFALHHCHAADHRTWIAQSPEGELRGSASLVVRDGYLQGSAEPIAYLGDLRLMPDRRLSRSWMAEVQTRLADLSLQTGAQHAYCCIIRDNPLAIQSLLGRRRANPLKLAHWRGYSNVSVYGQRGLSSAPRTHAGVRVVRAEPRHLDALRAFLDSESSRQSFGCVFSETEFERRISHWPDFAIGSFLLAVDERENLLGCVAPWDAGKIKRIVVEQMPVAQQLLRMGYNAVAPLAGRPGIASPGNPLRDIYLTHLQVRQRDPEVFAALLDVAWAQVRKDYSLMQLCLYDQDPLWLAMRRYRSVSLPMDLYTAPCGSNTPVFTETCAAGVPGFEIYLV | not soluble |
| MLITISVARSENYYCVQVASSEKLEDLIPLFEKFKNMDNVRIEKIGGFYTLRIGFYLNKSDVLKILPEIKEKYRDAFVRVCEYDLSRVVFPKPEKVITLEQQEIEESKTTKENFLMLLEKNIEELKKLTEIIARGNTTKVKPFEKLESTVVEMYKQKEKSYKRAFPLYINGEFRYRGKALTGENLLGDKWYSYLGLKLSFFRRGFADFKYEKERAKFAKLFSEFDIQKEYTYLLAFQSQEEVFLKGLKYELGVVESEKNKTLSLLKDWVKFTESYDKSLGFPYRELIKKEELEGIESVSNGFFLKPMKINVEEFMKYYEKRKKDVEEYLKKFEIKTTDKWFYLRHTDLDVFARYYFAGKDGNTRDFWALGLRFELPIPYIITDLGKVDKLEILSFKERARLSYATTYSFLFDYISRINRNYSNIVNHLEQINVNFLEIEREIYFWKNGLREANYTLILRNLLDTYHRLEQLIYLKYINYVYIQKLIYFMDIKEEEIIRRILDG | not soluble |
| MLITKNQAEKWFDNSLGKQFNPDLFYGFQCYDYANMFFMIATGERLQGLYAYNIPFDNKARIEKYGQIIKNYDSFLPQKLDIVVFPSKYGGGAGHVEIVESANLNTFTSFGQNWNGKGWTNGVAQPGWGPETVTRHVHYYDDPMYFIRLNFPDKVSVGDKAKSVIKQATAKKQAVIKPKKIMLVAGHGYNDPGAVGNGTNERDFIRKYITPNIAKYLRHAGHEVALYGGSSQSQDMYQDTAYGVNVGNNKDYGLYWVKSQGYDIVLEIHLDAAGESASGGHVIISSQFNADTIDKSIQDVIKNNLGQIRGVTPRNDLLNVNVSAEININYRLSELGFITNKKDMDWIKKNYDLYSKLIAGAIHGKPIGGLVAGNVKTSAKNQKNPPVPAGYTPDKNNVPYKKETGYYTVANVKGNNVRDGYSTNSRITGVLPNNATIKYDGAYCINGYRWITYIANSGQRRYIATGEVDKAGNRISSFGKFSAVLEHHHHHH | not soluble |
| MLKCVMSGSQVKVFGKAVQALSRISDEFWLDPSKKGLALRCVNSSRSAYGCVLFSPVFFQHYQWSALVKMSENELDTTLHLKCKLGMKSILPIFRCLNSLERNIEKCRIFTRSDKCKVVIQFFYRHGIKRTHNICFQESQPLQVIFDKNVCTNTLMIQPRLLADAIVLFTSSQEEVTLAVTPLNFCLKSSNEESMDLSNAVHSEMFVGSDEFDFFQIGMDTEITFCFKELKGILTFSEATHAPISIYFDFPGKPLALSIDDMLVEANFILATLADEQSRASSPQSLCLSQKRKRSDLIEKKAGKNVTGQALECISKKAAPRRLYPKETLTNISALENCGSPAMKRVDGDVSEVSESSVSNTEEVPGSLCLRKFSCMFFGAVSSDQQEHFNHPFDSLARASDSEEDMNNGSFSIFLEHHHHHH | not soluble |

From the DeepSol protein solubility set
